# Experimental data as given in IntAct's records for PubMed 20111005.
# B1: CCAAT/enhancer-binding protein beta (Gallus gallus (Chicken)), Q05826 (parent)
# chain: MQRLVAWDAACLPIQPPAFKSMEVANFYYEADCLAALNKLHPRAAGGRSMTELTVGDHERAIDFSPYLDPLAASQQPAQPPPPAAAAGGNFEPACSSGGQDFLSDLFAEDYKGSGGGKKPDYTYISLTRHGHPCGSQSHKPGVLPGCFPPQIVETKVEPVFETLDSCKGPRKEEGGAGPGPGGMSSPYGSTVRSYLGYQSVPSGSSGNLSTSSSSSPPGTPNPSESSKSAAGAGGYSGPPAGKNKPKKCVDKHSDEYKLRRERNNIAVRKSRDKAKMRNLETQHKVLELTAENERLQKKVEQLSRELSTLRNLFKQLPEPLLASSPRC
# Variants of: B1
# Conditions: with smca2_human SMARCA2, P51531
# smca2_human SMARCA2, P51531, sequence (P51531 whole entry): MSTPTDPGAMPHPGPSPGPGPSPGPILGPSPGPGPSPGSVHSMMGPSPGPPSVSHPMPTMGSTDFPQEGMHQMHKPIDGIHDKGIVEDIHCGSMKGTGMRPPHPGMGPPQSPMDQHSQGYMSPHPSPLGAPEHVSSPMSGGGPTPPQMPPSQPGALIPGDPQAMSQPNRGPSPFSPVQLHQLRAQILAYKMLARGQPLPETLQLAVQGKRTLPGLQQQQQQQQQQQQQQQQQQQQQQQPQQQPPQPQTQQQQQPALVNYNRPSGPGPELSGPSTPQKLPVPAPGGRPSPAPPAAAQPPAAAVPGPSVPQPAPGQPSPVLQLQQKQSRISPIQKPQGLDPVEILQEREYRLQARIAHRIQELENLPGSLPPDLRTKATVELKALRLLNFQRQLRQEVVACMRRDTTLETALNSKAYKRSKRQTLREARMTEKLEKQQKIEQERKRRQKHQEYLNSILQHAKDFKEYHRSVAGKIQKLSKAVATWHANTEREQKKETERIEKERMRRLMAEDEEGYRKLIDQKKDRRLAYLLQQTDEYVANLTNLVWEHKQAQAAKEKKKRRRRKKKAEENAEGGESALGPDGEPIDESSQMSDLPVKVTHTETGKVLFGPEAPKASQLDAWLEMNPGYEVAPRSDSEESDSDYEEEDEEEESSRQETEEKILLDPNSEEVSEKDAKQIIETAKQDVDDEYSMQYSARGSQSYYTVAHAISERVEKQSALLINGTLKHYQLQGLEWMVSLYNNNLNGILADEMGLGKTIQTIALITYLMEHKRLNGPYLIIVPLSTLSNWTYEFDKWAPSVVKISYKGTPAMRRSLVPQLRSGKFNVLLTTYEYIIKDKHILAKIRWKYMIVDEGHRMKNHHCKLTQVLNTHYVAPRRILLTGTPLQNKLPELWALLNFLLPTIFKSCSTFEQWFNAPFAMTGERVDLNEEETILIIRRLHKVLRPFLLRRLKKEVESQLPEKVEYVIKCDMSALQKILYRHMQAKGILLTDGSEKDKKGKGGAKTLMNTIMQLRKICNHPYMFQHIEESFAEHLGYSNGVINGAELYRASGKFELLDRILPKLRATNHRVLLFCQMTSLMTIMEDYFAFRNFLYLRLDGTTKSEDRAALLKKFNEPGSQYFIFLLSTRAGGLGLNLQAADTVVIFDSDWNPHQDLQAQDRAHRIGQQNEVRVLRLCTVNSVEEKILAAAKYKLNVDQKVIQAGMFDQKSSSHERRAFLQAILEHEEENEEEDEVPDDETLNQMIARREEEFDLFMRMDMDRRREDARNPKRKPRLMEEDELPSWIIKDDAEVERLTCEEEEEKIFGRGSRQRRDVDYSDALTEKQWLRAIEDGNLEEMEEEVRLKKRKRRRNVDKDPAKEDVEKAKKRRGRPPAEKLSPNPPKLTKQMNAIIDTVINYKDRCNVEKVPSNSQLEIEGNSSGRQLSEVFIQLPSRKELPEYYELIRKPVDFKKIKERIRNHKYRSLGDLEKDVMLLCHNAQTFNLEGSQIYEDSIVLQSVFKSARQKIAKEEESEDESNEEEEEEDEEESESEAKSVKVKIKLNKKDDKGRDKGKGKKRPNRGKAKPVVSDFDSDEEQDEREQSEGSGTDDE
row,effect of a mutation on the interaction,Variant
1,decreasing interaction,MQLLVAWDAACLPIQPPAFKSMEVANFYYEADCLAALNKLHPRAAGGRSMTELTVGDHERAIDFSPYLDPLAASQQPAQPPPPAAAAGGNFEPACSSGGQDFLSDLFAEDYKGSGGGKKPDYTYISLTRHGHPCGSQSHKPGVLPGCFPPQIVETKVEPVFETLDSCKGPRKEEGGAGPGPGGMSSPYGSTVRSYLGYQSVPSGSSGNLSTSSSSSPPGTPNPSESSKSAAGAGGYSGPPAGKNKPKKCVDKHSDEYKLRRERNNIAVRKSRDKAKMRNLETQHKVLELTAENERLQKKVEQLSRELSTLRNLFKQLPEPLLASSPRC [R3L]
